# Assay results from patent publication US20230058489A1, “COMBINATION COMPRISING A TIM-3 INHIBITOR AND A HYPOMETHYLATING AGENT FOR USE IN TREATING MYELODYSPLASTIC SYNDROME OR CHRONIC MYELOMONOCYTIC LEUKEMIA” (Novartis AG, priority 2020, published 2023).
# Experiments:
# THP-1 AML cells = experiment: Co-culture of THP-1 cells with anti-CD3 activated PBMCs, Incucyte killing assay; assay type: cell-based, human; conditions: 1 μg/mL, THP-1 cells pre-treated with decitabine (250 or 500 nM, 5 days), FIG. 4
# Procedure: THP-1 cells were plated in complete RPMI-1640 (Gibco) media (supplemented with 2 mM glutamine, 100 U/ml Pen-Strep, 10 mM HEPES, 1 mM NaPyr, and 10% fetal bovine serum (FBS)). Decitabine (250 or 500 nM; supplemented to media daily for five days) or DMSO control were added for a 5-day incubation at 37° C., 5% CO2. Two days after plating THP-1 cells, healthy human donor peripheral blood mononuclear cells (PBMCs; Medcor) were isolated from whole blood by centrifugation of sodium citrate CPT tubes at 1,800×g for 20 minutes. At the completion of the spin, the tube was inverted 10 times to mix the plasma and PBMC layers. Cells were washed in 2× volume of PBS/MACS Buffer (Miltenyi) and centrifuged at 250×g for 5 minutes. Supernatant was aspirated, and 1 mL of PBS/MACS Buffer was added following by pipetting to wash the cell pellet. 19 mL of PBS/MACS Buffer were added to wash, followed by a repeat of the centrifugation. Supernatant was aspirated, and the cell pellet was resuspended in 1 mL of complete media, followed by pipetting to a single cell suspension, and the volume was brought up to 10 mL with complete RPMI. 100 ng/mL anti-CD3 (eBioscience) was added to the media for a 48-hour stimulation at 37° C., 5% CO2. After 5 days culture with decitabine or DMSO, THP-1 cells were harvested and labeled with CellTracker™ Deep Red Dye (ThermoFisher) following manufacturer's instructions.
# [1] = system: hematological malignancies; experiment: Phase Ib study CPDR001X2105 (NCT03066648), MBG453/sabatolimab single agent or with decitabine or azacitidine, all disease cohorts; assay type: in vivo
# Description: In study [CPDR001X2105], as of 26 Jul. […] The most frequently reported adverse event attributed to study treatment was a rash in two subjects (8%). All other adverse events attributed to study treatment were single occurrences. There were no DLTs during the first cycle. […] There were no DLTs during the first 2 cycles.
# Study Design and Methods: This is a phase Ib, open-label, multicenter, dose-escalation study of sabatolimab+HMA (decitabine [Dec] or azacitidine [Aza]) in patients (pts) with AML or HR-MDS (NCT03066648; CPDR001X2105). Patients were adults with newly diagnosed (ND) or relapsed/refractory (R/R; ≥1 prior therapy) AML or IPSS-R high- or very high-risk MDS; patients with chronic myelomonocytic leukemia (CMML) were also eligible. Patients were HMA naive and ineligible for intensive chemotherapy. Escalating dose cohorts of IV sabatolimab examined were: 240 or 400 mg Q2W (D8, D22) or 800 mg Q4W (D8) combined with Dec (20 mg/m^2; IV D1-5) or Aza (75 mg/m^2; IV/SC D1-7) per 28-day cycle. Primary objectives included safety/tolerability; secondary objectives included preliminary efficacy and pharmacokinetics.
substance,measurement,setting,value
"MBG453: high-affinity, ligand-blocking, humanized anti-TIM-3 IgG4 antibody, disclosed in WO2015/117002",killing of THP-1 cells by anti-CD3 activated PBMCs,THP-1 AML cells,further enhanced
same,adverse event attributed to study treatment: rash,"[1]; MBG453 single agent, 26 subjects (two subjects)",8%
same,incidence of any adverse event attributed to study treatment,"[1]; MBG453 single agent, 26 subjects, as of 26 Jul. 2019",≤ 10%
same,discontinuation of study treatment due to treatment-related AEs,[1]; as of 26 Jul. 2019,No subjects discontinued
same,DLTs,"[1]; during the first cycle, single agent",no DLTs
